Laboratory results published in article PMC5608357, “Identification of LAG3 high affinity aptamers by HT-SELEX and Conserved Motif Accumulation (CMA)”.

B1: LAG3 Apt1 (structured_RNA)
RNA: GGGAGAGAGAUAUAAGGGCCUCCUGAUACCCGCUGCUAUCUGGACCGAUCCCAUUACCAAAUUCUCUCCC
modifications: 2'-F-U, 2'-F-C
B2: LAG3 Apt2 (structured_RNA)
RNA: GGGAGAGAGAUAUAAGGGUCUUGCCUGAUGGAGUUGGAGAGGACCAUCACCCAUUACCAAAUUCUCUCCC
modifications: 2'-F-U, 2'-F-C
B3: LAG3 Apt4 (structured_RNA)
RNA: GGGAGAGAGAUAUAAGGGACCGAAUCUGGUUAAUCUGCCUCACGUUAGGCCCAUUACCAAAUUCUCUCCC
modifications: 2'-F-U, 2'-F-C
B4: LAG3 Apt5 (structured_RNA)
RNA: GGGAGAGAGAUAUAAGGGUCUUGCCCAUCGACAAUAGAGCCCAGUCGCUGCCCAUUACCAAAUUCUCUCC
modifications: 2'-F-U, 2'-F-C
B5: LAG3 Apt1, biotinylated (structured_RNA)
RNA: B1 RNA
modifications: 2'-F-U, 2'-F-C

Legend:
[1] = molecular target: T1, LAG3-Fc (rmLAG3-Fc) (mouse, UniProt Q61790 24-442); experiment: filter binding; 2 mM Ca2+; Filter binding: 20 mM HEPES pH 7.4, 150 mM NaCl, 2 mM CaCl2, 37 C, 30 min; SPR: PBS, 0.005% Tween 20, pH 7.4, temperature not stated; settings: protein: recombinant; tags: human IgG2-Fc fusion; chain copies: 2; label: 32P (alpha-ATP)
[2] = molecular target: T1, LAG3-Fc (rmLAG3-Fc); experiment: SPR; apparent Kd from equilibrium RU; printed kon 1x10^3, koff <2.1x10^-4 s-1 do not match it; Filter binding: 20 mM HEPES pH 7.4, 150 mM NaCl, 2 mM CaCl2, 37 C, 30 min; SPR: PBS, 0.005% Tween 20, pH 7.4, temperature not stated; settings: protein: recombinant; tags: human IgG2-Fc fusion; chain copies: 2

T1 sequence (Q61790 24-442): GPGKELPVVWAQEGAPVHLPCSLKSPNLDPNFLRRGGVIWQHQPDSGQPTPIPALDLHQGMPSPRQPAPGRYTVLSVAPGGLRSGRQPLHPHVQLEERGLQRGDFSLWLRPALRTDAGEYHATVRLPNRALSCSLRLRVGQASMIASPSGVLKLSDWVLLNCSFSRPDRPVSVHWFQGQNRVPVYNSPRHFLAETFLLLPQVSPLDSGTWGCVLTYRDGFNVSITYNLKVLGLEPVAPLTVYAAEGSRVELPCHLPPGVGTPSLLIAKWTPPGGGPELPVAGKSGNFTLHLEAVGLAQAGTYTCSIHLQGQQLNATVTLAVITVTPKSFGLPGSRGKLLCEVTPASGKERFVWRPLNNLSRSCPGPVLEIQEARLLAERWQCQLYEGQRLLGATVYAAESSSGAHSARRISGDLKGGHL

Row | Binder | Kd [1] [nM] | Kd [2] [nM]
1 | B1 | 20 | 
2 | B2 | 50 | 
3 | B3 | 100 | 
4 | B4 | 200 | 
5 | B5 |  | 2.7
